From patent publication US20250313627A1 (FUSE BIOTHERAPEUTICS, published 2025)
Changes are numbered by the printed parent chain. Names may count otherwise.

Assays:
[1] = target: T1, human ROR1 (Receptor Tyrosine Kinase-Like Orphan Receptor 1) on the cell surface (human, UniProt Q01973 30-937); assay: flow cytometry, B16-F10 cells expressing human ROR1 (high density)
T1 construct: whole, on cells; engineered into B16-F10 (high density) and LS174T (low density) cells; also called B16-F10-ROR1-H; LS174T-ROR1-L
T1 sequence (Q01973 30-937): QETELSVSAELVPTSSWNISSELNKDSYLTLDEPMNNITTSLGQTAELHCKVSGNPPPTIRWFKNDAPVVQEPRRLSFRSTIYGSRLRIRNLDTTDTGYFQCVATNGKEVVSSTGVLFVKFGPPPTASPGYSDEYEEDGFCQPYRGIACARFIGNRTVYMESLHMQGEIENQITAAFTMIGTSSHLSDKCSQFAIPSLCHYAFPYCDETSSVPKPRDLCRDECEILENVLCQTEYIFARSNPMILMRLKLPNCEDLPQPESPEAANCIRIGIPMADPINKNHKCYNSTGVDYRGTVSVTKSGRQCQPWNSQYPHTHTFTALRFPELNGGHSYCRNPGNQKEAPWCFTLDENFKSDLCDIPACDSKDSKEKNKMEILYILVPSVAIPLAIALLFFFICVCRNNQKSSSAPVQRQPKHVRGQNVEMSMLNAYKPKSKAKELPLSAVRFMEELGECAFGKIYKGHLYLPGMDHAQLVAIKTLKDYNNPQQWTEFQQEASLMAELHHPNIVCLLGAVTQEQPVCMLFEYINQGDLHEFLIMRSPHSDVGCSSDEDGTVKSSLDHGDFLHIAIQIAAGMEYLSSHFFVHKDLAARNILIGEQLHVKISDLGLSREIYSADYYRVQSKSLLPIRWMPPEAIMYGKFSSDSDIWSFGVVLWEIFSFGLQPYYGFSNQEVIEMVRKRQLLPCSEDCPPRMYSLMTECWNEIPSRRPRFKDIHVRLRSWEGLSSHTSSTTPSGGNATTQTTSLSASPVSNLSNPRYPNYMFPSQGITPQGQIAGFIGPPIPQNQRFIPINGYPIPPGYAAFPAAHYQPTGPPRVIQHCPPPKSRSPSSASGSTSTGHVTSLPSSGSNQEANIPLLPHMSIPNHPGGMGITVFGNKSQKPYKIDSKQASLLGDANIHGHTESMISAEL
Experimental: (§1) As shown in the tables below, mouse B16-F10 melanoma (Tables 9A-9F) or LS174T human colorectal adenocarcinoma (Tables 9G-9H) cells genetically engineered to express human ROR1 at high and low densities, respectively, were stained for flow cytometric analysis with 100 nM of humanized variants of the ROR1 specific VHHs, 5A1 or 2A11 in either a VHH-Fc format or the Ac13 format shown in FIG. 1. Cells were analyzed on a flow cytometer after the primary test article was fluorescently tagged with a goat anti human IgG-Fc specific PE secondary antibody. The positive control used was PE conjugated anti-human ROR1 clone 2A2. Negative controls included a PE labeled mouse IgG Ab, the secondary antibody only, the combination of a Hen Egg Lysozyme (HEL) specific antibody plus goat anti human IgG-Fc specific PE and Fluorescence Minus One (FMO). Other controls included the non-humanized version of 5A1-Fc (FUSE179), 2A11-Fc (FUSE112) and 5A1-Ac13 (FUSE488). Humanized variants were generated using computational design (FUSE489, FUSE497-498, FUSE563, FUSE569-570, and BI-HU9-VHH11-33), a yeast display library in which mutations were inserted into the Vernier zone residues of human framework indicated in GenBank accession number M99660 (FUSE524-525, FUSE589, FUSE597-598, FUSE537, FUSE661-662, BI-HU9-HK and BI-HU9-HK-1), and a second yeast display library in which mutations were inserted into the Vernier zone residues of human framework indicated in GenBank accession number AWH66715 and amino acid position 103 within CDR3 (FUSE559, FUSE590-596, BI-HU9-VH9-1, FUSE654-655 and FUSE661-662. Affinity matured variants of FUSE559 were also generated using computational design (F22158101-21; Table 9H).

[2] = target: T1, human ROR1 (Receptor Tyrosine …); assay: flow cytometry, LS174T cells expressing human ROR1 (low density)
Experimental: as §1

[3] = target: T1, human ROR1 (Receptor Tyrosine …); assay: flow cytometry, B16-F10 cells expressing human ROR1 (high density); remark: listed apart in the source
Experimental: as §1

[4] = target: T1, human ROR1 (Receptor Tyrosine …); assay: flow cytometry, LS174T cells expressing human ROR1 (low density); remark: listed apart in the source
Experimental: as §1

B1: BI-HU9-HK-1 h5A1 Fc (Fc fusion)
chain: EVQLLESGGGLVQPGGSLRLSCAASGYTNRLKCMGWFRQAPGKEREEVASISTGTGNTYYADSVKGRFTISQDKSKNTLYLQMNSLKAEDTAVYYCAADVRPDGTTCHYNSRGQGTLVTVSS
notes: VHH-Fc format; not shown: Fc of the VHH-Fc format
MFI [1]: 136000

B2: BI-HU9-VH9-1 h5A1 Fc (Fc fusion)
chain: EVQLLESGGGLVPRGGSLRLSCTASGYTNRLKCMGWFRQAPGKEREEIATISTGTGNTYYADSVKGRFTISQDKSRNTLYLQMKTLRAEDTAVYYCAADVRPDGTTCHYNSWGQGTQVTVSS
notes: as for B1
MFI [1]: 16600

B3: BI-HU9-VHH31 h5A1 Fc (Fc fusion)
chain: EVQLVESGGGLVQPGGSLRLSCAASGFTVRLKCMGWFRQAPGKGLEEVATISTGTGNTYYADSVKGRFTISRDNSKNTLYLQMNSLRAEDTAVYYCAADVRPDGTTCHYNSWGQGTTVTVSS
notes: as for B1
MFI [1]: 17900

B4: F22158101 (h5A1-BI-001 Fc) (Fc fusion)
chain: B1 chain with L31I, T105F
notes: as for B1
MFI [2]: 19700

B5: F22158102 (h5A1-BI-002 Fc) (Fc fusion)
chain: B1 chain with L31I, S111K
notes: as for B1
MFI [2]: 20500

B6: F22158103 (h5A1-BI-003 Fc) (Fc fusion)
chain: B1 chain with T58A, S111K
notes: as for B1
MFI [2]: 15800

B7: F22158104 (h5A1-BI-004 Fc) (Fc fusion)
chain: B1 chain with L31I, T58A, S111K
notes: as for B1
MFI [2]: 28900

B8: F22158105 (h5A1-BI-005 Fc) (Fc fusion)
chain: B1 chain with T105F, S111K
notes: as for B1
MFI [2]: 22300

B9: F22158106 (h5A1-BI-006 Fc) (Fc fusion)
chain: B1 chain with L31I, T105R
notes: as for B1
MFI [2]: 17400

B10: F22158107 (h5A1-BI-007 Fc) (Fc fusion)
chain: B1 chain with T58A, T105R
notes: as for B1
MFI [2]: 11500

B11: F22158108 (h5A1-BI-008 Fc) (Fc fusion)
chain: B1 chain with L31I, T58A, T105R
notes: as for B1
MFI [2]: 25100

B12: F22158109 (h5A1-BI-009 Fc) (Fc fusion)
chain: B1 chain with L31I, T58S, T105R, S111K
notes: as for B1
MFI [2]: 35000

B13: F221581010 (h5A1-BI-010 Fc) (Fc fusion)
chain: B1 chain with T105R, S111K
notes: VHH-Fc format; also called F22158110; not shown: Fc of the VHH-Fc format
MFI [2]: 18700

B14: F221581011 (h5A1-BI-011 Fc) (Fc fusion)
chain: B1 chain with L31I, D103F
notes: VHH-Fc format; also called F22158111; not shown: Fc of the VHH-Fc format
MFI [2]: 19400

B15: F221581012 (h5A1-BI-012 Fc) (Fc fusion)
chain: B1 chain with D103F, T105R
notes: VHH-Fc format; also called F22158112; not shown: Fc of the VHH-Fc format
MFI [2]: 14200

B16: F221581013 (h5A1-BI-013 Fc) (Fc fusion)
chain: B1 chain with D103F, S111K
notes: VHH-Fc format; also called F22158113; not shown: Fc of the VHH-Fc format
MFI [2]: 23800

B17: F221581014 (h5A1-BI-014 Fc) (Fc fusion)
chain: B1 chain with L31I, D103F, T105R
notes: VHH-Fc format; also called F22158114; not shown: Fc of the VHH-Fc format
MFI [2]: 28700

B18: F221581015 (h5A1-BI-015 Fc) (Fc fusion)
chain: B1 chain with L31I, D103F, S111K
notes: VHH-Fc format; also called F22158115; not shown: Fc of the VHH-Fc format
MFI [2]: 29300

B19: F221581016 (h5A1-BI-016 Fc) (Fc fusion)
chain: B1 chain with T58A, D103H
notes: VHH-Fc format; also called F22158116; not shown: Fc of the VHH-Fc format
MFI [2]: 15000

B20: F221581017 (h5A1-BI-017 Fc) (Fc fusion)
chain: B1 chain with L31I, T58A, D103H
notes: VHH-Fc format; also called F22158117; not shown: Fc of the VHH-Fc format
MFI [2]: 28600

B21: F221581018 (h5A1-BI-018 Fc) (Fc fusion)
chain: B1 chain with T58A, D103H, T105R
notes: VHH-Fc format; also called F22158118; not shown: Fc of the VHH-Fc format
MFI [2]: 17500

B22: F221581019 (h5A1-BI-019 Fc) (Fc fusion)
chain: B1 chain with L31I, T58A, D103H, T105R
notes: VHH-Fc format; also called F22158119; not shown: Fc of the VHH-Fc format
MFI [2]: 33800

B23: F221581020 (h5A1-BI-020 Fc) (Fc fusion)
chain: B1 chain with T58A, D103H, S111K
notes: VHH-Fc format; also called F22158120; not shown: Fc of the VHH-Fc format
MFI [2]: 26500

B24: F221581021 (h5A1-BI-021 Fc) (Fc fusion)
chain: B1 chain with L31I, T58A, D103H, S111K
notes: VHH-Fc format; also called F22158121; not shown: Fc of the VHH-Fc format
MFI [2]: 35800

B25: FUSE-590 (h5A1-FA9-HK2_Fc) (Fc fusion)
chain: B2 chain with P13Q, T50S, A61S, Q72R, T85S, D103R, W112R
notes: as for B1
MFI [3]: 7330

B26: FUSE-591 (h5A1-FA9-HK3_Fc) (Fc fusion)
chain: B2 chain with T23A, K84N, T85S, R87K, D103K, S111K, W112R
notes: as for B1
MFI [3]: 7770

B27: FUSE-592 (h5A1-FA9-HK4_Fc) (Fc fusion)
chain: B1 chain with Q13P, P14R, K76R, M83L, K87R, D103R, L117Q
notes: as for B1
MFI [3]: 7540

B28: FUSE-593 (h5A1-FA9-HK5_Fc) (Fc fusion)
chain: B1 chain with P14R, V48I, A61S, Q72R, K76R, M83L, D103K, L117Q
notes: as for B1
MFI [3]: 7520

B29: FUSE-594 (h5A1-FA9-HK6_Fc) (Fc fusion)
chain: B2 chain with T50S, K84N, T85S, R87K, D103R, W112R
notes: as for B1
MFI [3]: 7910

B30: FUSE-595 (h5A1-FA9-HK7_Fc) (Fc fusion)
chain: B2 chain with P13Q, Q72R, T85S, R87K, D103K, W112R
notes: as for B1
MFI [3]: 7180

B31: FUSE-596 (h5A1-FA9-HK8 Fc) (Fc fusion)
chain: B2 chain with T50S, A61S, Q72R, Q82K, M83L, T85S, W112R
notes: as for B1
MFI [3]: 6260

B32: FUSE-654 - h5A1-FA9-HK6-R19K Fc (Fc fusion)
chain: B2 chain with R19K, T50S, K84N, T85S, R87K, D103R, W112R
notes: as for B1
MFI [4]: 4560

B33: FUSE-655 - h5A1-FA9-HK6-N84S Fc (Fc fusion)
chain: B2 chain with T50S, K84S, T85S, R87K, D103R, W112R
notes: as for B1
MFI [4]: 4010

B34: FUSE-560 (h2A11-HK2 Fc) (Fc fusion)
chain: EVQLLESGGGLVQPGGSLRLSCAASGSTYSANCMGWFRQAPGKERELASMSIRSGRTYYADSVKGRFTISRDSSKNTLYLQMNSLKAEDTAVYYCAAAYGGSRCVYNYRGQGTLVTVSS
notes: as for B1
MFI [1]: 159000

B35: FUSE-561 (h2A11-HK3 Fc) (Fc fusion)
chain: B34 chain with K86R
notes: as for B1
MFI [1]: 157000

B36: FUSE-562 (h2A11-HK4 Fc) (Fc fusion)
chain: B34 chain with A60S, S73G
notes: as for B1
MFI [1]: 155000

B37: FUSE-589 (h2A11-HK5 Fc) (Fc fusion)
chain: B34 chain with R71Q, S73G
notes: as for B1
MFI [3]: 6950

B38: FUSE-661 - h2A11-HK2-3-N84S Fc (Fc fusion)
chain: B34 chain with T28Q, Y29R, E44D, N83S
notes: as for B1
MFI [4]: 4880

B39: FUSE-662 - h2A11-HK2-16-N84S Fc (Fc fusion)
chain: B34 chain with S27V, T28G, E44D, N83S
notes: as for B1
MFI [4]: 4350

B40: BI-HU9-VH9 h5A1 Fc (Fc fusion)
chain: B2 chain with Q72R, K74N
notes: VHH-Fc format; same VHH as FUSE-497; not shown: Fc of the VHH-Fc format
MFI [1]: 14400
